Assay [1] addresses T1, Venus-tagged Gβ3γ9, P16520;O14610.
T1 chain 1: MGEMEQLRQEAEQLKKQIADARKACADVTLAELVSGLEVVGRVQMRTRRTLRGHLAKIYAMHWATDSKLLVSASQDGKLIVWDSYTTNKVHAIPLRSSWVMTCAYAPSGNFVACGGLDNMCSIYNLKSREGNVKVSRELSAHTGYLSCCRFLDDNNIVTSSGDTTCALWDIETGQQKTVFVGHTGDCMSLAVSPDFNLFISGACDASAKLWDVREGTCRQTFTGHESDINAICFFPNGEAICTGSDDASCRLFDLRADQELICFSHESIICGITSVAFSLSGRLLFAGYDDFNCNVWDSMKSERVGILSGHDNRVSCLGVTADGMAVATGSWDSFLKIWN
T1 chain 2: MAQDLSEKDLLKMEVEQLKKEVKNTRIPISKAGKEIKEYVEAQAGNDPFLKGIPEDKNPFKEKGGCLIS
The assay is described as follows: BRET-based Gβ3γ9 displacement assay (competition with GαoG92-NLuc). The following applies: chain shown with the change; n = 3; parent: est. 100; read off a plot.

For assay [2], the target named is GFP-Gβ1γ3 (GFP-tagged Gβ1 and GFP-tagged Gγ3), P62873;P63215. The assay is described as follows: co-immunoprecipitation (GFP nanobody IP, Western blot quantification). As to conditions: chain shown with the change; HEK293T cells; n = 4; parent: est. 1.0; read off a plot. A general note: Immunoblotting shows a protein as a band on a membrane.
GFP-Gβ1γ3 (GFP-tagged Gβ1 and GFP-tagged Gγ3), P62873;P63215, sequence (chain, as listed by the source, chain 1 of 2): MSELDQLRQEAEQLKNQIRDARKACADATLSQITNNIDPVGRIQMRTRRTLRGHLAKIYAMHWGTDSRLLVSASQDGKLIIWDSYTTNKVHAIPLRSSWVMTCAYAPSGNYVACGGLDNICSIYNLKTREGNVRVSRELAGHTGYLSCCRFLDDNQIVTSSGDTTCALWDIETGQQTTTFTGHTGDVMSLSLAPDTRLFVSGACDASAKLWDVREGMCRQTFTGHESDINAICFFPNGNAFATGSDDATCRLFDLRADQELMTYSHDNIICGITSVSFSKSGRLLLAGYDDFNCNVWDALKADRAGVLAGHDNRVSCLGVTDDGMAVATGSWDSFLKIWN
GFP-Gβ1γ3 (GFP-tagged Gβ1 and GFP-tagged Gγ3), P62873;P63215, sequence (chain, as listed by the source, chain 2 of 2): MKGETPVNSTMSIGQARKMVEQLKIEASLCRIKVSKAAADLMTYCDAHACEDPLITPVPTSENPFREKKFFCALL
The target of assay [3] is T2, GFP-Ric8A, Q9NPQ8.
T2 chain: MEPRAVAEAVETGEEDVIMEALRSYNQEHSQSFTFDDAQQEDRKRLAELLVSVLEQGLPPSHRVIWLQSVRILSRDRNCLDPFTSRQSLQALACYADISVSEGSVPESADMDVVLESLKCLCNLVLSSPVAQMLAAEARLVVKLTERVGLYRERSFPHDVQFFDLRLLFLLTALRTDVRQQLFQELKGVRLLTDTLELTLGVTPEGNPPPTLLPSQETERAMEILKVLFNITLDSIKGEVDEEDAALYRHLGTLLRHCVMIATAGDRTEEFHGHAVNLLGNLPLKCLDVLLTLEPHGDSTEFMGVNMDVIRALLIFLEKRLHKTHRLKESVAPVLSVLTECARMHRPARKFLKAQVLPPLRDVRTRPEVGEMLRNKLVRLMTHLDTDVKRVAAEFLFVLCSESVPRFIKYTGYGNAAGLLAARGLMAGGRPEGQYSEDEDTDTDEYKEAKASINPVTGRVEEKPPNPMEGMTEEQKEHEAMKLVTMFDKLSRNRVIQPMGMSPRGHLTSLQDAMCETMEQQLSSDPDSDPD
The description is as above. As to conditions: chain shown with the change; HEK293T cells; n = 4; parent: est. 1.0; read off a plot.

Experimental findings from article PMC12781765 are described below.

B1: Gαo wild-type (non-tagged), P09471-1 L39_G40insV (protein)
chain: MGCTLSAEERAALERSKAIEKNLKEDGISAAKDVKLLLLVGAGESGKSTIVKQMKIIHEDGFSGEDVKQYKPVVYSNTIQSLAAIVRAMDTLGIEYGDKERKADAKMVCDVVSRMEDTEPFSAELLSAMMRLWGDSGIQECFNRSREYQLNDSAKYYLDSLDRIGAADYQPTEQDILRTRVKTTGIVETHFTFKNLHFRLFDVGGQRSERKKWIHCFEDVTAIIFCVALSGYDQVLHEDETTNRMHESLMLFDSICNNKFFIDTSIILFLNKKDLFGEKIKKSPLTICFPEYTGPNTYEDAAAYIQAQFESKNRSPNKEIYCHMTCATDTNNIQVVFDAVTDIIIANNLRGCGLY
Consider B1, for which the percent of parent (% of Gαo wild-type) in assay [1] worked out at 30. Besides, the ratio to parent (folds over Gαo wild-type) worked out at 0.29 in assay [2] and 6.2 in assay [3].
